{
  "source": "paper PMC5118804",
  "key": {"[1]": {"target": "MS2V5-eIF4G 84-295 (eIF4G deletion mutant that only contains the interaction site for PABPC1) (UniProt Q04637)", "sequence (Q04637 84-295, stated change not applied)": "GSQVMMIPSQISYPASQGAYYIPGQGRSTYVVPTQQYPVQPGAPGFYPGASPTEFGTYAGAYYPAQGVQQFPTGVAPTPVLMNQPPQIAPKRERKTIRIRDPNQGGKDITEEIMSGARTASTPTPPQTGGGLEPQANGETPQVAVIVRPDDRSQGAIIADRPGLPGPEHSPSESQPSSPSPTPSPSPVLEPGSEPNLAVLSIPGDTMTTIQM"}, "[2]": {"target": "FLAGemGFP-tagged PAIP2 PAM2 (PAM2 motif of PABP-interacting protein 2)"}, "[3]": {"target": "FLAGemGFP-tagged eRF3a -C PAM2 (C-terminal PAM2 motif of eRF3a)"}, "[4]": {"target": "FLAGemGFP-tagged eRF3a -N PAM2 (N-terminal PAM2 motif of eRF3a)"}, "[5]": {"target": "FLAGemGFP-tagged eRF3a PAM2 (overlapping N- and C-terminal PAM2 motifs of eukaryotic release factor 3a)"}, "[6]": {"target": "FLAGemGFP-tagged PAIP2 PAM2 (PAM2 motif of PABP-interacting protein 2)", "remark": "listed apart in the source"}},
  "data": [
    {"substance": "cytoplasmic poly(A)-binding protein (PABPC1) (from UniProt P11940 1-636) (natural protein)", "values": [
      {"measurement": "reporter mRNA level (TPI-4MS2 reporter with the SMG5 3' UTR, Northern blot, HeLa) upon tethering MS2V5-eIF4G 84-295, relative to MS2V5-GST", "setting": "[1]", "value": 5, "unit": "fold"},
      {"measurement": "reporter mRNA level (TPI-4MS2 reporter with the SMG5 3' UTR, Northern blot, HeLa) upon tethering MS2V5-PAIP2 PAM2, relative to MS2V5-SYNZIP 1 (Fig. 2c)", "setting": "[2]", "value": 4, "unit": "fold"},
      {"measurement": "reporter mRNA level (FLAG-TPI-4MS2-SMG5, Northern blot, HeLa) upon tethering the MS2V5-tagged C-terminal eRF3a PAM2 motif (Fig. 3b)", "setting": "[3]", "value": 5, "unit": "fold"},
      {"measurement": "reporter mRNA level (FLAG-TPI-4MS2-SMG5, Northern blot, HeLa) upon tethering the MS2V5-tagged N-terminal eRF3a PAM2 motif (Fig. 3b)", "setting": "[4]", "value": 5, "unit": "fold"},
      {"measurement": "reporter mRNA level (FLAG-TPI-4MS2-SMG5, Northern blot, HeLa) upon tethering the MS2V5-tagged overlapping eRF3a PAM2 motif, relative to MS2V5-GST (Fig. 3b)", "setting": "[5]", "value": 5, "unit": "fold"},
      {"measurement": "reporter mRNA level (beta-globin 4MS2/4PP7 double tethering reporter, Northern blot, HeLa) upon tethering MS2V5-PAIP2 PAM2 upstream of PP7-tethered BTZ, relative to GST upstream of BTZ (Fig. 5d)", "setting": "[6]", "value": 8, "unit": "fold"},
      {"measurement": "reporter mRNA level (beta-globin 4MS2/4PP7 double tethering reporter, Northern blot, HeLa) upon tethering MS2V5-PAIP2 PAM2 upstream of PP7-tethered RNPS1, relative to GST upstream of RNPS1 (Fig. 5c)", "setting": "[6]", "value": 6, "unit": "fold"}
    ]}
  ]
}
